# The Human Domainome abundance scans (Beltran et al. 2025)
# ± gives the uncertainty stated by the source.
# B1: POU domain, class 3, transcription factor 2, residues 262 to 338; numbered along this chain, P20265 (parent)
# chain: EDTPTSDDLEQFAKQFKQRRIKLGFTQADVGLALGTLYGNVFSQTTICRFEALQLSFKNMCKLKPLLNKWLEEADSS
# Variants of: B1
# Assay: abundance fitness (aPCA) (normalised: wild type 0, dead -1); higher = more abundant; growth selection in yeast, the domain comes from the species named
# Conditions: Homo sapiens
row,Variant,abundance fitness
1,G35V,-0.345 ± 0.035
2,I47K,-0.701 ± 0.085
3,G24C,-0.575 ± 0.053
4,S77D,-0.003 ± 0.064
5,G35E,-0.076 ± 0.035
6,K14T,-0.121 ± 0.087
7,S56Q,-0.385 ± 0.064
8,L37D,-0.118 ± 0.046
9,S43I,-0.768 ± 0.19
10,K58R,-0.058 ± 0.031
11,S77L,-0.028 ± 0.05
12,G24P,-0.714 ± 0.069
13,A33N,-0.477 ± 0.14
14,T45H,-0.066 ± 0.062
15,L71A,-0.504 ± 0.16
16,E10K,0.124 ± 0.037
17,D75V,-0.135 ± 0.031
18,G39A,-0.314 ± 0.033
19,K62T,-0.059 ± 0.039
20,F25P,-0.837 ± 0.15
21,T3Q,-0.091 ± 0.045
22,L34C,-0.224 ± 0.05
23,S6N,-0.032 ± 0.049
24,D29N,-0.228 ± 0.063

row,Variant,abundance fitness
1,A52V,-0.615 ± 0.043
2,R19A,-0.057 ± 0.036
3,S43W,-0.5 ± 0.062
4,K22M,-0.073 ± 0.046
5,A74M,-0.088 ± 0.049
6,C61L,-0.001 ± 0.029
7,D7G,0.064 ± 0.12
8,T45Y,-0.338 ± 0.097
9,L71Y,-0.168 ± 0.17
10,T3N,-0.203 ± 0.05
11,A13Y,-0.845 ± 0.17
12,Q18H,-0.193 ± 0.093
13,V41A,0.017 ± 0.039
14,A28L,-0.196 ± 0.04
15,I21D,-0.567 ± 0.094
16,L71M,0.067 ± 0.12
17,L67P,-0.654 ± 0.16
18,Q54L,-0.316 ± 0.049
19,R20A,-1.05 ± 0.1
20,T26R,-0.457 ± 0.039
21,L32F,-0.25 ± 0.49
22,E73A,-0.145 ± 0.081
23,W70G,-0.754 ± 0.041
24,D7K,0.029 ± 0.4

row,Variant,abundance fitness
1,F42C,-0.006 ± 0.049
2,V30F,-0.552 ± 0.35
3,L53P,-0.961 ± 0.28
4,F50E,-0.85 ± 0.091
5,G31L,-0.59 ± 0.057
6,L23Y,-0.139 ± 0.054
7,S6Y,0.126 ± 0.057
8,A13F,-0.84 ± 0.2
9,V41P,-0.042 ± 0.069
10,C48D,0.052 ± 0.048
11,Q18L,-0.13 ± 0.037
12,C48G,0.022 ± 0.025
13,P4W,0.091 ± 0.044
14,E51R,-0.638 ± 0.049
15,G39Y,-0.533 ± 0.16
16,N59I,0.092 ± 0.079
17,F57K,0.026 ± 0.042
18,Q44K,-0.009 ± 0.042
19,L53D,-0.411 ± 0.068
20,P65L,-0.375 ± 0.13
21,F25D,-0.749 ± 0.11
22,T26I,-0.635 ± 0.14
23,A28E,0.035 ± 0.042
24,K69S,-0.146 ± 0.1

row,Variant,abundance fitness
1,E73H,-0.218 ± 0.27
2,K22A,0.009 ± 0.03
3,R19S,-0.187 ± 0.039
4,Q11N,0.025 ± 0.078
5,R49Y,-0.499 ± 0.12
6,T3L,-0.086 ± 0.037
7,E73P,-0.416 ± 0.17
8,P4C,0.108 ± 0.062
9,K64M,-0.06 ± 0.05
10,F50M,-0.485 ± 0.063
11,L53H,-0.017 ± 0.069
12,N68P,-0.98 ± 0.47
13,I47P,-1.02 ± 0.19
14,F50K,-0.711 ± 0.1
15,L71G,-0.445 ± 0.088
16,F25N,-0.709 ± 0.11
17,K14V,-0.134 ± 0.054
18,N68V,0.085 ± 0.077
19,E1L,-0.109 ± 0.065
20,Q54G,-0.23 ± 0.038
21,A28C,-0.165 ± 0.048
22,K17W,-0.832 ± 0.064
23,E1T,-0.006 ± 0.14
24,E51K,-0.666 ± 0.096

row,Variant,abundance fitness
1,D29S,-0.248 ± 0.034
2,L23M,0.048 ± 0.04
3,L55C,-0.318 ± 0.045
4,A74S,-0.168 ± 0.039
5,L34A,-0.646 ± 0.068
6,F25C,-0.192 ± 0.05
7,L53Y,0.018 ± 0.07
8,W70L,-0.502 ± 0.043
9,T46G,-0.643 ± 0.036
10,L71C,-0.847 ± 0.37
11,L34R,-0.773 ± 0.054
12,F42M,-0.004 ± 0.047
13,R20S,-0.694 ± 0.084
14,W70M,-0.669 ± 0.084
15,L37F,-0.053 ± 0.076
16,G24F,-1 ± 0.25
17,E1A,-0.108 ± 0.058
18,K64E,-0.3 ± 0.046
19,T3G,-0.342 ± 0.03
20,K62I,-0.045 ± 0.077
21,V30N,-0.381 ± 0.25
22,L34G,-0.854 ± 0.059
23,F50G,-0.839 ± 0.057
24,R20V,-0.728 ± 0.059

row,Variant,abundance fitness
1,A52E,0.048 ± 0.031
2,A28T,-0.198 ± 0.049
3,A13H,-0.544 ± 0.094
4,L9P,-0.483 ± 0.067
5,G35Q,0.025 ± 0.046
6,F16P,-0.733 ± 0.081
7,P65D,-0.118 ± 0.097
8,S76I,-0.153 ± 0.063
9,E51I,-0.503 ± 0.14
10,C61P,-0.779 ± 0.086
11,D8S,0.034 ± 0.037
12,V41S,-0.017 ± 0.045
13,P65K,-0.213 ± 0.22
14,L23D,-0.733 ± 0.091
15,P65E,-0.133 ± 0.072
16,F42Y,0.056 ± 0.06
17,K62V,-0.089 ± 0.031
18,K22C,-0.042 ± 0.057
19,T3P,-0.205 ± 0.054
20,L63C,-0.399 ± 0.05
21,E51N,-0.886 ± 0.29
22,S77M,-0.17 ± 0.078
23,E73K,0.118 ± 0.089
24,A33W,-0.021 ± 0.036

row,Variant,abundance fitness
1,P65Q,0.124 ± 0.14
2,A13S,-0.274 ± 0.041
3,S43G,-0.12 ± 0.028
4,E10T,-0.103 ± 0.044
5,T26V,-0.797 ± 0.065
6,R49Q,0.045 ± 0.04
7,Q18P,-1.21 ± 0.36
8,D8P,-0.34 ± 0.066
9,L71W,-0.465 ± 0.12
10,M60C,-0.386 ± 0.074
11,L34H,-1.2 ± 0.45
12,S56W,-0.801 ± 0.081
13,K17M,-0.171 ± 0.041
14,D75C,-0.161 ± 0.049
15,R19V,-0.194 ± 0.033
16,L66A,-0.137 ± 0.034
17,F42G,-0.397 ± 0.033
18,K22I,-0.273 ± 0.068
19,D7Q,0.211 ± 0.17
20,Q15N,0.063 ± 0.11
21,D75A,0.009 ± 0.031
22,D8L,-0.172 ± 0.04
23,I21A,-0.236 ± 0.037
